Reference: patent US20260275319A1, “ARCHAEAL PEPTIDE RECOMBINASE – A NOVEL PEPTIDE LIGATING ENZYME” (MAX-PLANCK-GESELLSCHAFT ZUR FÖRDERUNG DER WISSENSCHAFTEN …, priority 2019, published 2026)

Key:
[1] = target: (15)KDPGA(0); test: microscale thermophoresis (MST); table row (15)KDPGA(0)
[2] = target: (15)KDPGA(5); test: microscale thermophoresis (MST); table row (15)KDPGA(5)

B1: M. jannaschii Adriase S1A mutant with C-terminal His-tag, Q57968 3-293 (enzyme)
chain: ALIICYYGKNGAVIGGDRRQIFFRGSEENRKILEEKLYSGEIKSEEELYKLAEKLNIKIIIEDDREKVRKISDSVVCGEVRSLGIDAKRRRVYATKGKCAIVDILNDTVTNQTIKEGFGIVVLGNRFLKKKAEEELKRTAKLFPMMPIQQIEDAIKEIFEKLKWHPTVSKEYDIYSVNKYEKNFEEVIKKDIESLFKYREQLRKQLIDFGKVMSIVNKIVKNGEIGVIKDGKLHLYDDYIAIDKIDPNPKVFKVVDVEGNFKDGDIVVIENGDMKIKGTNEKVTTKYIIIHKGSHHHHHH
Kd [1]: > 20 µM | Kd [2]: > 20 µM
